To fix the notation:
B1: GpH7-A48/GpH7-B3-01-15Y/GpL16-k0 (antibody, human IgG1, kappa)
heavy 1: QVQLVQSGAEVKKPGASVTVSCKASGYTFTDYEMHWIRQPPGEGLEWIGAIDPKTGDTAYSESFQDRVTLTADKSTSTAYMELSSLTSEDTAVYYCTRFYSYTYWGQGTLVTVSSASTKGPSVFPLAPSSKSTSGGTAALGCLVKDYFPEPVTVSWNSGALTSGVHTFPAVLQSSGLYSLSSVVTVPSSSLGTQTYICNVNHKPSNTKVDKKVEPKSCDKTHTCPPCPAPELLGGPSVFLFPPKPKDTLMISRTPEVTCVVVDVSHEDPEVKFNWYVDGVEVHNAKTKPREEQYNSTYRVVSVLTVLHQDWLNGKEYKCKVSNKALRAPIEKTISKAKGQPREPQVYTLPPSRKELTKNQVSLTCLVKGFYPSDIAVEWESNGQPENNYKTTPPVLDSDGSFFLYSKLTVDKSRWQQGNVFSCSVMHEALHNRYTQKSLSLSP
heavy 2: not shown
light: DIVMTQSPLSLPVTPGEPASISCQASESLVHSNRNTYLHWYLQKPGQSPQLLIYKVSNRFSGVPDRFSGSGSGTDFTLKISRVEAEDVGVYYCSQNTHVPPTFGQGTKVEIERTVAAPSVFIFPPSDEQLKSGTASVVCLLNNFYPREAKVQWKVDNALQSGNSQESVTEQDSKDSTYSLSSTLTLSKADYEKHKVYACEVTHQGLSSPVTKSFNRGEC
notes: H1 P329R; H2 L234Y
B2: GpH7-A5/GpH7-HA6/GpL16-k0 (antibody, human IgG1, kappa)
heavy 1: not shown
heavy 2: B1 heavy 1 with G234W, K354D, R433H, K437E
light: B1 light
notes: H2 G236W and P329R
B3: GpH7-A5/GpH7-HA11/GpL16-k0 (antibody, human IgG1, kappa)
heavy 1: not shown
heavy 2: B1 heavy 1 with S296A, K354D, R433H, K437E
light: B1 light
notes: H2 S298A and P329R
B4: GpH7-A5/GpH7-HA5/GpL16-k0 (antibody, human IgG1, kappa)
heavy 1: not shown
heavy 2: B1 heavy 1 with L232Y, K354D, R433H, K437E
light: B1 light
notes: H2 L234Y and P329R
B5: GpH7-A48/GpH7-B3-15-02A/GpL16-k0 (antibody, human IgG1, kappa)
heavy 1: B1 heavy 1
heavy 2: not shown
light: B1 light
notes: H1 P329R; H2 S298A
B6: GpH7-A48/GpH7-B3-03-20W/GpL16-k0 (antibody, human IgG1, kappa)
heavy 1: B1 heavy 1
heavy 2: not shown
light: B1 light
notes: H1 P329R; H2 G236W
B7: H240-Kn120/H240-Hl089/L73-k0 (antibody, human IgG1, kappa)
heavy 1: QDQLVQSGAEVKKPGASVKVSCKASGFNIKDTYIQWVRQAPGQGLEWMGRIDPLRKQTKYREKFEGRVTITADTSTNTAYMELSSLRSEDTAVYYCVRSGREFDYWGQGTLVTVSSASTKGPSVFPLAPSSKSTSGGTAALGCLVKDYFPEPVTVSWNSGALTSGVHTFPAVLQSSGLYSLSSVVTVPSSSLGTQTYICNVNHKPSNTKVDKKVEPKSCDKTHTCPPCPAPEYYWGPMVFLFPPKPKDTLMISRTPEVTCVVVDVSDEDPEVKFNWYVDGVEVHNAKTKPREEQYNATYRVVSVLTVLHQDWLNGKEYKCKVSNKDLPAPIEKTISKAKGQPREPQVCTLPPSRDELTKNQVSLWCLVKGFYPSDIAVEWESNGQPENNYKTTPPVLDSDGSFFLYSKLTVDKSRWQQGNVFSCSVMHEALHNHYTQKSLSLSP
heavy 2: QDQLVQSGAEVKKPGASVKVSCKASGFNIKDTYIQWVRQAPGQGLEWMGRIDPLRKQTKYREKFEGRVTITADTSTNTAYMELSSLRSEDTAVYYCVRSGREFDYWGQGTLVTVSSASTKGPSVFPLAPSSKSTSGGTAALGCLVKDYFPEPVTVSWNSGALTSGVHTFPAVLQSSGLYSLSSVVTVPSSSLGTQTYICNVNHKPSNTKVDKKVEPKSCDKTHTCPPCPAPELLTGPSVFLFPPKPKDTLMISRTPEVTCVVVDVSHEEPEVKFNWYVDGVEVHNAKTKPREEQYNSTYRVVSVLTVLHQDWLNGKEYKCKVSNDALPKPIEETISKAKGQPREPQVYTLPPSRCELTKNQVSLSCAVKGFYPSDIAVEWESNGQPENNYKTTPPVLDSDGSFFLVSKLTVDKSRWQQGNVFSCSVMHEALHNHYTQKSLSLSP
light: DIQMTQSPSSLSASVGDRVTITCRASQDIHKYIAWYQQKPGQAPRLLIQYTSTLQPGVPSRFSGSGSGTDYTFTISSLQPEDIATYYCLQYEQLRTFGGGTKVEIKRTVAAPSVFIFPPSDEQLKSGTASVVCLLNNFYPREAKVQWKVDNALQSGNSQESVTEQDSKDSTYSLSSTLTLSKADYEKHKVYACEVTHQGLSSPVTKSFNRGEC
notes: also called H240-Kn120/H240-HI089/L73-k0
B8: H240-Kn179/H240-Hl068/L73-k0 (antibody, human IgG1, kappa)
heavy 1: B7 heavy 1 with E293K
heavy 2: B7 heavy 2 with T235G
light: B7 light
notes: also called H240-Kn179/H240-HI068/L73-k0
B9: H240-Kn180/H240-Hl068/L73-k0 (antibody, human IgG1, kappa)
heavy 1: B7 heavy 1 with E293R
heavy 2: B7 heavy 2 with T235G
light: B7 light
notes: also called H240-Kn180/H240-HI068/L73-k0

Substitutions are numbered along the chain they refer to. Names and notes keep the numbering of the source.

Consider nine molecules from US20150344570A1 (published 2015).

T5 sequence (P08637 17-208 F176V): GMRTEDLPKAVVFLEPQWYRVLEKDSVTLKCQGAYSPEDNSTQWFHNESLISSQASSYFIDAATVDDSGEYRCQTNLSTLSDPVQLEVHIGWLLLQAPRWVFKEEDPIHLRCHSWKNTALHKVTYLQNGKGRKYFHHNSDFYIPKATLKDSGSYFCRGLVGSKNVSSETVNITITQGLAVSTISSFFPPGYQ
FcγRIIIa extracellular domain with C-terminal His tag, sequence (P08637 17-208): as the sequence (P08637 17-208 F176V) above, with V160F counted along it

One assay addresses FcγRIIIa extracellular domain with C-terminal His tag (human, UniProt P08637 17-208). As to the kind of experiment: SPR (Biacore), relative binding activity; GpH7-A5/GpH7-B3/GpL16-k0 = 100.
As for B1, the “FcγRIIIa BINDING ACTIVITY” value was found to be 11%.

Regarding B2, the “FcγRIIIa BINDING ACTIVITY” value came to 56%.

As to B3, the “FcγRIIIa BINDING ACTIVITY” value came out at 84%.

Regarding B4, the “FcγRIIIa BINDING ACTIVITY” value worked out at 60%.

On to B5, for which the “FcγRIIIa BINDING ACTIVITY” value was found to be 47%.

Regarding B6, the “FcγRIIIa BINDING ACTIVITY” value was 13%.

The target in another assay is T1, FcgRIIa R type extracellular domain, C-terminal His tag (human, UniProt P12318 34-217).
T1 construct: extracellular domain; Soluble analyte in Biacore; also called FcγRIIa R; FcγRIIa(R); not shown: His tag at the C terminus
T1 sequence (looked up): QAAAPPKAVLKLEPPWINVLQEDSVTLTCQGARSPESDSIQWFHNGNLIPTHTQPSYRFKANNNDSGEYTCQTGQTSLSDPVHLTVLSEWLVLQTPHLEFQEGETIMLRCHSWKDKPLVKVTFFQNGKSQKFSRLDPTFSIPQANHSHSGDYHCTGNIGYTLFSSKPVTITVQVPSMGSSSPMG
As to the kind of experiment: SPR (Biacore); KD of H240-Kn120/H240-Hl068/L73-k0 divided by KD of the variant. As to the method:
(§1) Analysis of interaction between objective antibody and the FcγR was carried out using Biacore T100 (GE Healthcare), Biacore T200, Biacore A100, and Biacore 4000. HBS-EP+ (GE Healthcare) was used as the running buffer, and the measurement temperature was set to 25° C. Chips produced by immobilizing the antigen peptide by the amine coupling method to a Series S sensor Chip CM5 (GE Healthcare), chips produced by allowing preliminarily biotinylated antigen peptides to interact with and immobilize onto a Series S Sensor Chip SA (certified) (GE Healthcare), chips produced by immobilizing Protein L (ACTIGEN, BioVision) to Series S Sencor Chip CM5 (GE Healthcare), or chips produced by immobilizing Protein A/G (Thermo Scientific) to Series S Sencor Chip CM5 (GE Healthcare) were used. Antibodies of interest were captured onto these chips, and allowed to interact to each FcγR diluted with running buffer. To regenerate and repeatedly use the chip, the antibodies captured onto the chip were washed off by reacting 10 mM glycine-HCl, pH 1.5.
On the technique in general: In SPR one partner is held on a chip, and binding of the other changes the refractive index at the surface.
In the case of B7, the “relative KD” value turned out to be 1.4.

For the molecule B8, the “relative KD” value stood at 0.8.

As to B9, the “relative KD” value was determined as 1.

Another assay concerns the target T2, FcgRIIa H type extracellular domain, C-terminal His tag (human, UniProt P12318 34-217).
T2 construct: extracellular domain; Soluble analyte in Biacore; also called FcγRIIa H; FcγRIIa(H); not shown: His tag at the C terminus
T2 sequence (looked up): T1 sequence (looked up) with R134H
The description is as above. As to the method:
as §1
Take B7: the “relative KD” value stood at 1.

For the molecule B8, the “relative KD” value is 1.

As for B9, the “relative KD” value was 1.2.

The next assay concerns the target T3, FcgRIIb extracellular domain, C-terminal His tag (human, UniProt P31994 43-217).
T3 construct: extracellular domain; Soluble analyte in Biacore; also called FcγRIIb; not shown: His tag at the C terminus
T3 sequence (looked up): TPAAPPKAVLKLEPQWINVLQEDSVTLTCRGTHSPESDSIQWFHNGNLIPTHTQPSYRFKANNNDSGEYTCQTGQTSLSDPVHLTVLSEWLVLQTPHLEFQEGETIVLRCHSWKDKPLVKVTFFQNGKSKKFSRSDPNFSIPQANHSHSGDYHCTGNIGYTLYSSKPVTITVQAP
The assay is described as above. The method, then:
as §1
Take B7: the “relative KD” value is 0.8.

B8: the “relative KD” value was determined as 0.6.

Take B9: the “relative KD” value was determined as 0.6.

For another assay, the target named is T4, FcgRIIIa F type extracellular domain, C-terminal His tag (human, UniProt P08637 17-208).
T4 construct: extracellular domain; Soluble analyte in Biacore; also called FcγRIIIa F; not shown: His tag at the C terminus
T4 sequence (P08637 17-208): as the sequence (P08637 17-208 F176V) above, with V160F counted along it
The description is as above. The method, then:
as §1
Consider B7, for which the “relative KD” value stood at 0.2.

For the molecule B8, the “relative KD” value was 0.5.

Take B9: the “relative KD” value came to 0.7.

A further assay has as its target T5, FcgRIIIa V type extracellular domain, C-terminal His tag (human, UniProt P08637 17-208).
T5 construct: extracellular domain; Soluble analyte in Biacore; also called FcγRIIIa V; not shown: His tag at the C terminus
The description is as above. As to the method:
as §1
For B7, the “relative KD” value amounted to 0.1.

As for B8, the “relative KD” value stood at 0.4.

Regarding B9, the “relative KD” value was determined as 0.5.

The next assay concerns the target T1, FcgRIIa R type extracellular domain, …. The description is as above. This is another data set of the same source.
As to B7, the “relative KD” value worked out at 1.4.

As to B8, the “relative KD” value was found to be 0.8.

As for B9, the “relative KD” value came to 1.

The target of a further assay is T2, FcgRIIa H type extracellular domain, …. Described as above. This is another data set of the same source.
B7: the “relative KD” value was found to be 1.

Turning to B8, the “relative KD” value came out at 1.

In the case of B9, the “relative KD” value is 1.2.

The next assay concerns the target T3, FcgRIIb extracellular domain, …. The description is as above. The source holds these as a separate data set.
B7: the “relative KD” value worked out at 0.8.

In the case of B8, the “relative KD” value is 0.6.

On to B9, for which the “relative KD” value is 0.6.

The next assay deals with T4, FcgRIIIa F type extracellular domain, …. The description is as above. The source holds these as a separate data set.
On to B7, for which the “relative KD” value turned out to be 0.2.

Regarding B8, the “relative KD” value came out at 0.5.

As to B9, the “relative KD” value was 0.7.

Another assay has as its target T5, FcgRIIIa V type extracellular domain, …. The description is as above. This is another data set of the same source.
Take B7: the “relative KD” value worked out at 0.1.

On to B8, for which the “relative KD” value is 0.4.

As to B9, the “relative KD” value turned out to be 0.5.
